{"source": "patent US20200199576", "proteins": {"B1": {"name": "wt HECT domain of E6AP (protein)", "chain": "MKRAAAKHLIERYYHQLTEGCGNEACTNEFCASCPTFLRMDNNAAAIKALELYKINAKLCDPHPSKKGASSAYLENSKGAPNNSCSEIKMNKKGARIDFKDVTYLTEEKVYEILELCREREDYSPLIRVIGRVFSSAEALVQSFRKVKQHTKEELKSLQAKDEDKDEDEKEKAACSAAAMEEDSEASSSRIGDSSQGDNNLQKLGPDDVSVDIDAIRRVYTRLLSNEKIETAFLNALVYLSPNVECDLTYHNVYSRDPNYLNLFIIVMENRNLHSPEYLEMALPLFCKAMSKLPLAAQGKLIRLWSKYNADQIRRMMETFQQLITYKVISNEFNSRNLVNDDDAIVAASKCLKMVYYANVVGGEVDTNHNEEDDEEPIPESSELTLQELLGEERRNKKGPRVDPLETELGVKTLDCRKPLIPFEEFINEPLNEVLEMDKDYTFFKVETENKFSFMTCPFILNAVTKNLGLYYDNRIRMYSERRITVLYSLVQGQQLNPYLRLKVRRDHIIDDALVRLEMIAMENPADLKKQLYVEFEGEQGVDEGGVSKEFFQLVVEEIFNPDIGMFTYDESTKLFWFNPSSFETEGQFTLIGIVLGLAIYNNCILDVHFPMVVYRKLMGKKGTFRDLGDSHPVLYQSLKDLLEYEGNVEDDMMITFQISQTDLFGNPMMYDLKENGDKIPITNENRKEFVNLYSDYILNKSVEKQFKAFRRGFHMVTNESPLKYLFRPEEIELLICGSRNLDFQALEETTEYDGGYTRDSVLIREFWEIVHSFTDEQKRLFLQFTTGTDRAPVGGLGKLKMIIAKNGPDTERLPTSHTCFNVLLLPEYSSKEKLKERLLKAITYAKGFGML"}, "B2": {"name": "HECT domain of wt Nedd4 (protein)", "chain": "SRDYKRKYEFFRRKLKKQNDIPNKFEMKLRRATVLEDSYRRIMGVKRADFLKARLWIEFDGEKGLDYGGVAREWFFLISKEMFNPYYGLFEYSATDNYTLQINPNSGLCNEDHLSYFKFIGRVAGMAVYHGKLLDGFFIRPFYKMMLHKPITLHDMESVDSEYYNSLRWILENDPTELDLRFIIDEELFGQTHQHELKNGGSEIVVTNKNKKEYIYLVIQWRFVNRIQKQMAAFKEGFFELIPQDLIKIFDENELELLMCGLGDVDVNDWREHTKYKNGYSANHQVIQWFWKAVLMMDSEKRIRLLQFVTGTSRVPMNGFAELYGSNGPQSFTVEQWGTPEKLPRAHTCFNRLDLPPYESFEELWDKLQMAIENTQGFDGVD"}, "B3": {"name": "E6AP HECT mutant YW6 (D651R, D652E, M653W, M654H) (protein)", "chain": "MKRAAAKHLIERYYHQLTEGCGNEACTNEFCASCPTFLRMDNNAAAIKALELYKINAKLCDPHPSKKGASSAYLENSKGAPNNSCSEIKMNKKGARIDFKDVTYLTEEKVYEILELCREREDYSPLIRVIGRVFSSAEALVQSFRKVKQHTKEELKSLQAKDEDKDEDEKEKAACSAAAMEEDSEASSSRIGDSSQGDNNLQKLGPDDVSVDIDAIRRVYTRLLSNEKIETAFLNALVYLSPNVECDLTYHNVYSRDPNYLNLFIIVMENRNLHSPEYLEMALPLFCKAMSKLPLAAQGKLIRLWSKYNADQIRRMMETFQQLITYKVISNEFNSRNLVNDDDAIVAASKCLKMVYYANVVGGEVDTNHNEEDDEEPIPESSELTLQELLGEERRNKKGPRVDPLETELGVKTLDCRKPLIPFEEFINEPLNEVLEMDKDYTFFKVETENKFSFMTCPFILNAVTKNLGLYYDNRIRMYSERRITVLYSLVQGQQLNPYLRLKVRRDHIIDDALVRLEMIAMENPADLKKQLYVEFEGEQGVDEGGVSKEFFQLVVEEIFNPDIGMFTYDESTKLFWFNPSSFETEGQFTLIGIVLGLAIYNNCILDVHFPMVVYRKLMGKKGTFRDLGDSHPVLYQSLKDLLEYEGNVEREWHITFQISQTDLFGNPMMYDLKENGDKIPITNENRKEFVNLYSDYILNKSVEKQFKAFRRGFHMVTNESPLKYLFRPEEIELLICGSRNLDFQALEETTEYDGGYTRDSVLIREFWEIVHSFTDEQKRLFLQFTTGTDRAPVGGLGKLKMIIAKNGPDTERLPTSHTCFNVLLLPEYSSKEKLKERLLKAITYAKGFGML"}, "B4": {"name": "xE6AP (fYW6), full-length E6AP with the YW6 HECT domain (protein)", "chain": "MKRAAAKHLIERYYHQLTEGCGNEACTNEFCASCPTFLRMDNNAAAIKALELYKINAKLCDPHPSKKGASSAYLENSKGAPNNSCSEIKMNKKGARIDFKDVTYLTEEKVYEILELCREREDYSPLIRVIGRVFSSAEALVQSFRKVKQHTKEELKSLQAKDEDKDEDEKEKAACSAAAMEEDSEASSSRIGDSSQGDNNLQKLGPDDVSVDIDAIRRVYTRLLSNEKIETAFLNALVYLSPNVECDLTYHNVYSRDPNYLNLFIIVMENRNLHSPEYLEMALPLFCKAMSKLPLAAQGKLIRLWSKYNADQIRRMMETFQQLITYKVISNEFNSRNLVNDDDAIVAASKCLKMVYYANVVGGEVDTNHNEEDDEEPIPESSELTLQELLGEERRNKKGPRVDPLETELGVKTLDCRKPLIPFEEFINEPLNEVLEMDKDYTFFKVETENKFSFMTCPFILNAVTKNLGLYYDNRIRMYSERRITVLYSLVQGQQLNPYLRLKVRRDHIIDDALVRLEMIAMENPADLKKQLYVEFEGEQGVDEGGVSKEFFQLVVEEIFNPDIGMFTYDESTKLFWFNPSSFETEGQFTLIGIVLGLAIYNNCILDVHFPMVVYRKLMGKKGTFRDLGDSHPVLYQSLKDLLEYEGNVEREWHITFQISQTDLFGNPMMYDLKENGDKIPITNENRKEFVNLYSDYILNKSVEKQFKAFRRGFHMVTNESPLKYLFRPEEIELLICGSRNLDFQALEETTEYDGGYTRDSVLIREFWEIVHSFTDEQKRLFLQFTTGTDRAPVGGLGKLKMIIAKNGPDTERLPTSHTCFNVLLLPEYSSKEKLKERLLKAITYAKGFGML"}, "B5": {"name": "xCHIP (CHIP-KB2), C213K, G214D, K215P, S217M, F218H, E219T (protein)", "chain": "MKGKEEKEGGARLGAGGGSPEKSPSAQELKEQGNRLFVGRKYPEAAACYGRAIMQQHEQALADCRRALELDGQSVKAHFFLGQCQLEMESYDEAIANLQRAYSLAKEQRLNFGDDIPSALRIAKKKRWNSIEERRIHQESELHSYLSRLIAAERERELEECQRNHEGDEDDSHVRAQQACIEAKHDKYMADMDELFSQVDEKRKKRDIPDYLKDPIMHTLMREPCITPSGITYDRKDIEEHLQRVGHFDPVTRSPLTQEQLIPNLAMKEVIDAFISENGWVEDY"}, "B6": {"name": "xCHIP (CHIP-KB12), C213K, G214D, K215P, S217M, F218R, E219T (protein)", "chain": "MKGKEEKEGGARLGAGGGSPEKSPSAQELKEQGNRLFVGRKYPEAAACYGRAIMQQHEQALADCRRALELDGQSVKAHFFLGQCQLEMESYDEAIANLQRAYSLAKEQRLNFGDDIPSALRIAKKKRWNSIEERRIHQESELHSYLSRLIAAERERELEECQRNHEGDEDDSHVRAQQACIEAKHDKYMADMDELFSQVDEKRKKRDIPDYLKDPIMRTLMREPCITPSGITYDRKDIEEHLQRVGHFDPVTRSPLTQEQLIPNLAMKEVIDAFISENGWVEDY"}}, "key": {"[1]": {"target": "wt UbcH7 (human E2)"}, "[2]": {"target": "T1, xUbcH7 (human), R5E, K9E", "T1 chain": "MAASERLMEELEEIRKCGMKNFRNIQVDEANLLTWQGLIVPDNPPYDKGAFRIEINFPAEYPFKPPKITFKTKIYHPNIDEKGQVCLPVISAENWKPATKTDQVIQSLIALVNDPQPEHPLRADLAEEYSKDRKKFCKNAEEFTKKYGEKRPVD"}, "[3]": {"target": "p53, P04637", "sequence (P04637 whole entry, looked up)": "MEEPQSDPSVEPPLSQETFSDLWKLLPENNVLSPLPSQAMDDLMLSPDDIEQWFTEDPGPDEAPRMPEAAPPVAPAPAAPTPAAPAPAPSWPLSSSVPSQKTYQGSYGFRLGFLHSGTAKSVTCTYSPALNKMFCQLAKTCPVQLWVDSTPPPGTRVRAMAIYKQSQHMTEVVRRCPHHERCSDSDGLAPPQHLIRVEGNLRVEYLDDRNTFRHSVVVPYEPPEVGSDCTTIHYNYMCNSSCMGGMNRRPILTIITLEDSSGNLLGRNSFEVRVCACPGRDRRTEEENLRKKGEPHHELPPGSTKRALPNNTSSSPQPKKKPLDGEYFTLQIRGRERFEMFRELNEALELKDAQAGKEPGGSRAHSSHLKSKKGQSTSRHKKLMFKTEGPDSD"}}, "data": [{"protein": "B1", "values": [{"measurement": "HECT auto-ubiquitination with wt UB, reducing gel", "setting": "[1]", "value": "HECT domains of wt E6AP, Nedd4, Smurf1 and Smurf2 can be loaded with wt UB through the wt Uba1-UbcH7 pair"}]}, {"protein": "B2", "values": [{"measurement": "HECT auto-ubiquitination with wt UB, reducing gel", "setting": "[1]", "value": "HECT domains of wt E6AP, Nedd4, Smurf1 and Smurf2 can be loaded with wt UB through the wt Uba1-UbcH7 pair"}, {"measurement": "HECT auto-ubiquitination with xUB, reducing gel", "setting": "[2]", "value": "the R5E and K9E mutants in the N-terminal helix of xUbcH7 interfered with the transfer of xUB to wt HECT E3s such as E6AP, Nedd4, Smurf1, and Smurf2"}]}, {"protein": "B3", "values": [{"measurement": "HECT auto-ubiquitination with xUB, Western blot", "setting": "[2]", "value": "YW3, YW4 and YW6 could be efficiently auto-ubiquitinated with xUB through the xUba1-xUbcH7 pair"}]}, {"protein": "B4", "values": [{"measurement": "p53 ubiquitination in the presence of E6, Western blot", "setting": "[3]", "value": "fYW6 could efficiently ubiquitinate p53 with xUB through the xUba1-xUbcH7-fYW6 cascade and the ubiquitination was dependent on the E6 protein"}, {"measurement": "full-length E6AP auto-ubiquitination with xUB, Western blot", "setting": "[2]", "value": "fYW4 and fYW6 can be auto-ubiquitinated by xUB through the xUba1-xUbcH7 cascade"}]}, {"protein": "B5", "values": [{"measurement": "p53 ubiquitination with xUB, Western blot", "setting": "[3]", "value": "both CHIP mutants could transfer xUB to p53, a known CHIP substrate (26), at an efficiency comparable to wt UB transfer by wt CHIP"}]}, {"protein": "B6", "values": [{"measurement": "p53 ubiquitination with xUB, Western blot", "setting": "[3]", "value": "both CHIP mutants could transfer xUB to p53, a known CHIP substrate (26), at an efficiency comparable to wt UB transfer by wt CHIP"}]}]}
